We go through eight substances from the supplement of paper PMC5998384.

Data set [1] concerns HeLa Kyoto. Nature of the data set: thermal stability score vs G1/S (z-score of summed log2 fold changes over temperatures); higher = more thermally stable than in G1/S.
The test system of data set [2] is HeLa Kyoto. Description: solubility in G1/S (NP-40 vs SDS abundance) (log2 ratio); higher = more soluble. The settings on record: cell cycle stage: G1/S.
In data set [3] the test system is HeLa Kyoto. Nature of the data set: solubility change mitosis vs G1/S (difference of NP-40 vs SDS log2 ratios) (log2 ratio difference); higher = more soluble in mitosis.
The subject of data set [4] is HeLa Kyoto. Description: melting temperature (median over replicates), in situ; higher = more thermally stable.
Setting [5] is: cell cycle stage: early G1 (4.5 h after nocodazole release).
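Wherever melting temperature (median over replicates), in situ is given: HeLa Kyoto cells synchronized by double thymidine or nocodazole block, proteins quantified by TMT10plex mass spectrometry, three independent biological replicates.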
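Wherever solubility change mitosis vs G1/S (difference of NP-40 vs SDS log2 ratios) is given: synchronized HeLa Kyoto cells (double thymidine block for G1/S, nocodazole release for mitosis), protein amounts in NP-40 versus SDS lysates quantified by mass spectrometry, three biological replicates.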
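Wherever solubility in G1/S (NP-40 vs SDS abundance) is given: HeLa Kyoto cells arrested at G1/S by double thymidine block, proteins quantified by TMT10plex mass spectrometry in mild NP-40 versus SDS extracts, three biological replicates.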
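Wherever thermal stability score vs G1/S (z-score of summed log2 fold changes over temperatures) is given: synchronized HeLa Kyoto cells, proteins quantified by TMT10plex mass spectrometry, three biological replicates, mitosis taken 0.5 h after nocodazole release, G1/S directly after double thymidine block.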

As for “MDDSEVESTASILASVKEQEAQFEKLTRALEEERRHVSAQLERVRVSPQDANPLMANGTLTRRHQNGRFVGDADLERQKFSDLKLNGPQDHSHLLYSTIPRMQEPGQIVETYTEEDPEGAMSVVSVETSDDGTTRRTETTVKKVVKTVTTRTVQPVAMGPDGLPVDASSVSNNYIQTLGRDFRKNGNGGPGPYVGQAGTATLPRNFHYPPDGYSRHYEDGYPGGSDNYGSLSRVTRIEERYRPSMEGYRAPSRQDVYGPQPQVRVGGSSVDLHRFHPEPYGLEDDQRSMGYDDLDYGMMSDYGTARRTGTPSDPRRRLRSYEDMIGEEVPSDQYYWAPLAQHERGSLASLDSLRKGGPPPPNWRQPELPEVIAMLGFRLDAVKSNAAAYLQHLCYRNDKVKTDVRKLKGIPVLVGLLDHPKKEVHLGACGALKNISFGRDQDNKIAIKNCDGVPALVRLLRKARDMDLTEVITGTLWNLSSHDSIKMEIVDHALHALTDEVIIPHSGWEREPNEDCKPRHIEWESVLTNTAGCLRNVSSERSEARRKLRECDGLVDALIFIVQAEIGQKDSDSKLVENCVCLLRNLSYQVHREIPQAERYQEAAPNVANNTGPHAASCFGAKKGKDEWFSRGKKPIEDPANDTVDFPKRTSPARGYELLFQPEVVRIYISLLKESKTPAILEASAGAIQNLCAGRWTYGRYIRSALRQEKALSAIADLLTNEHERVVKAASGALRNLAVDARNKELIGKHAIPNLVKNLPGGQQNSSWNFSEDTVISILNTINEVIAENLEAAKKLRETQGIEKLVLINKSGNRSEKEVRAAALVLQTIWGYKELRKPLEKEGWKKSDFQVNLNNASRSQSSHSYDDSTLPLIDRNQKSDKKPDREEIQMSNMGSNTKSLDNNYSTPNERGDHNRTLDRSGDLGDMEPLKGTTPLMQDEGQESLEEELDVLVLDDEGGQVSYPSMQKI [CTNND1]”, the thermal stability score was -0.443 with HeLa Kyoto [1] (setting [5]) and 1.3 in the data set on HeLa Kyoto [1] (cell cycle stage: mitosis). The “solubility in G1/S (log2)” value with HeLa Kyoto [2] is 0.228. Further, the “solubility change mitosis (log2)” value with HeLa Kyoto [3] is -0.0563. Besides, the melting temperature amounted to 48.1 °C in the data set on HeLa Kyoto [4] (cell cycle stage: G1/S) and 48 °C in the data set on HeLa Kyoto [4] (cell cycle stage: mitosis).
With “MMRFMLLFSRQGKLRLQKWYLATSDKERKKMVRELMQVVLARKPKMCSFLEWRDLKVVYKRYASLYFCCAIEGQDNELITLELIHRYVELLDKYFGSVCELDIIFNFEKAYFILDEFLMGGDVQDTSKKSVLKAIEQADLLQEEDESPRSVLEEMGLA [AP1S1]”, the thermal stability score is -1.3 in the data set on HeLa Kyoto [1] (setting [5]) and -0.738 with HeLa Kyoto [1] (cell cycle stage: mitosis). The “solubility in G1/S (log2)” value with HeLa Kyoto [2] is -0.154. Besides, the “solubility change mitosis (log2)” value with HeLa Kyoto [3] was -0.0672. In addition, the melting temperature in the data set on HeLa Kyoto [4] (cell cycle stage: G1/S) worked out at 53 °C.
For VLDLR, the thermal stability score is -2.48 with HeLa Kyoto [1] (setting [5]) and -3.74 with HeLa Kyoto [1] (cell cycle stage: mitosis). For the same substance, in the data set with HeLa Kyoto [2], the “solubility in G1/S (log2)” value is -0.0421. In the data set on HeLa Kyoto [3], the “solubility change mitosis (log2)” value was -0.0963. The melting temperature in the data set on HeLa Kyoto [4] (cell cycle stage: G1/S) amounted to 56.4 °C; in the data set on HeLa Kyoto [4] (cell cycle stage: mitosis), 55.4 °C.
As for “MAPSSPRPALPALLVLLGALFPGPGNAQTSVSPSKVILPRGGSVLVTCSTSCDQPKLLGIETPLPKKELLLPGNNRKVYELSNVQEDSQPMCYSNCPDGQSTAKTFLTVYWTPERVELAPLPSWQPVGKNLTLRCQVEGGAPRANLTVVLLRGEKELKREPAVGEPAEVTTTVLVRRDHHGANFSCRTELDLRPQGLELFENTSAPYQLQTFVLPATPPQLVSPRVLEVDTQGTVVCSLDGLFPVSEAQVHLALGDQRLNPTVTYGNDSFSAKASVSVTAEDEGTQRLTCAVILGNQSQETLQTVTIYSFPAPNVILTKPEVSEGTEVTVKCEAHPRAKVTLNGVPAQPLGPRAQLLLKATPEDNGRSFSCSATLEVAGQLIHKNQTRELRVLYGPRLDERDCPGNWTWPENSQQTPMCQAWGNPLPELKCLKDGTFPLPIGESVTVTRDLEGTYLCRARSTQGEVTRKVTVNVLSPRYEIVIITVVAAAVIMGTAGLSTYLYNRQRKIKKYRLQQAQKGTPMKPNTQATPP [ICAM1]”, the thermal stability score was -2.15 with HeLa Kyoto [1] (setting [5]) and -2.19 in the data set with HeLa Kyoto [1] (cell cycle stage: mitosis). For the same substance, the “solubility in G1/S (log2)” value with HeLa Kyoto [2] was 0.303. Further, in the data set with HeLa Kyoto [3], the “solubility change mitosis (log2)” value stood at 0.0971. Further, the results for the melting temperature in the data set with HeLa Kyoto [4] (cell cycle stage: G1/S) and in the data set on HeLa Kyoto [4] (cell cycle stage: mitosis) were 56.7 °C and 58.8 °C, respectively.
Consider “MADEELEALRRQRLAELQAKHGDPGDAAQQEAKHREAEMRNSILAQVLDQSARARLSNLALVKPEKTKAVENYLIQMARYGQLSEKVSEQGLIEILKKVSQQTEKTTTVKFNRRKVMDSDEDDDY [PDCD5]”, for which the figures for the thermal stability score in the data set on HeLa Kyoto [1] (setting [5]) and in the data set with HeLa Kyoto [1] (cell cycle stage: mitosis) were -5.9 and -7.32, respectively. Also, the “solubility in G1/S (log2)” value in the data set on HeLa Kyoto [2] was -0.112. In the data set on HeLa Kyoto [3], the “solubility change mitosis (log2)” value stood at 0.568. The results for the melting temperature with HeLa Kyoto [4] (cell cycle stage: G1/S) and in the data set with HeLa Kyoto [4] (cell cycle stage: mitosis) were 54.3 °C and 52.3 °C, respectively.
On to “MEELIVELRLFLELLDHEYLTSTVREKKAVITNILLRIQSSKGFDVKDHAQKQETANSLPAPPQMPLPEIPQPWLPPDSGPPPLPTSSLPEGYYEEAVPLSPGKAPEYITSNYDSDAMSSSYESYDEEEEDGKGKKTRHQWPSEEASMDLVKDAKICAFLLRKKRFGQWTKLLCVIKDTKLLCYKSSKDQQPQMELPLQGCNITYIPKDSKKKKHELKITQQGTDPLVLAVQSKEQAEQWLKVIKEAYSGCSGPVDSECPPPPSSPVHKAELEKKLSSERPSSDGEGVVENGITTCNGKEQVKRKKSSKSEAKGTVSKVTGKKITKIISLGKKKPSTDEQTSSAEEDVPTCGYLNVLSNSRWRERWCRVKDNKLIFHKDRTDLKTHIVSIPLRGCEVIPGLDSKHPLTFRLLRNGQEVAVLEASSSEDMGRWIGILLAETGSSTDPEALHYDYIDVEMSASVIQTAKQTFCFMNRRVISANPYLGGTSNGYAHPSGTALHYDDVPCINGSLKGKKPPVASNGVTGKGKTLSSQPKKADPAAVVKRTGSNAAQYKYGKNRVEADAKRLQTKEEELLKRKEALRNRLAQLRKERKDLRAAIEVNAGRKPQAILEEKLKQLEEECRQKEAERVSLELELTEVKESLKKALAGGVTLGLAIEPKSGTSSPQSPVFRHRTLENSPISSCDTSDTEGPVPVNSAAVLKKSQAAPGSSPCRGHVLRKAKEWELKNGT [AFAP1]”, for which the thermal stability score in the data set on HeLa Kyoto [1] (setting [5]) was -1.47; with HeLa Kyoto [1] (cell cycle stage: mitosis), -2.94. For the same substance, the “solubility in G1/S (log2)” value with HeLa Kyoto [2] is -0.611. Besides, the “solubility change mitosis (log2)” value with HeLa Kyoto [3] turned out to be 0.451. Also, the melting temperature in the data set on HeLa Kyoto [4] (cell cycle stage: G1/S) was found to be 50.5 °C; in the data set on HeLa Kyoto [4] (cell cycle stage: mitosis), 49.7 °C.
For the substance “MAAPRPSPAISVSVSAPAFYAPQKKFGPVVAPKPKVNPFRPGDSEPPPAPGAQRAQMGRVGEIPPPPPEDFPLPPPPLAGDGDDAEGALGGAFPPPPPPIEESFPPAPLEEEIFPSPPPPPEEEGGPEAPIPPPPQPREKVSSIDLEIDSLSSLLDDMTKNDPFKARVSSGYVPPPVATPFSSKSSTKPAAGGTAPLPPWKSPSSSQPLPQVPAPAQSQTQFHVQPQPQPKPQVQLHVQSQTQPVSLANTQPRGPPASSPAPAPKFSPVTPKFTPVASKFSPGAPGGSGSQPNQKLGHPEALSAGTGSPQPPSFTYAQQREKPRVQEKQHPVPPPAQNQNQVRSPGAPGPLTLKEVEELEQLTQQLMQDMEHPQRQNVAVNELCGRCHQPLARAQPAVRALGQLFHIACFTCHQCAQQLQGQQFYSLEGAPYCEGCYTDTLEKCNTCGEPITDRMLRATGKAYHPHCFTCVVCARPLEGTSFIVDQANRPHCVPDYHKQYAPRCSVCSEPIMPEPGRDETVRVVALDKNFHMKCYKCEDCGKPLSIEADDNGCFPLDGHVLCRKCHTARAQT [ZYX]”, the thermal stability score is -1.65 in the data set on HeLa Kyoto [1] (setting [5]) and 0.522 with HeLa Kyoto [1] (cell cycle stage: mitosis). For the same substance, in the data set with HeLa Kyoto [2], the “solubility in G1/S (log2)” value was found to be 0.412. Moreover, the “solubility change mitosis (log2)” value in the data set with HeLa Kyoto [3] is -0.128. The melting temperature is 55.9 °C in the data set on HeLa Kyoto [4] (cell cycle stage: G1/S) and 65.5 °C with HeLa Kyoto [4] (cell cycle stage: mitosis).
Take NUP205: the thermal stability score in the data set with HeLa Kyoto [1] (setting [5]) is -4.5; with HeLa Kyoto [1] (cell cycle stage: mitosis), -6.17. Further, the “solubility in G1/S (log2)” value in the data set with HeLa Kyoto [2] was -0.671. The “solubility change mitosis (log2)” value with HeLa Kyoto [3] was found to be 0.203. The results for the melting temperature with HeLa Kyoto [4] (cell cycle stage: G1/S) and with HeLa Kyoto [4] (cell cycle stage: mitosis) were 52.1 °C and 48.8 °C, respectively.
